One experiment deals with ADSC pellets. As to the kind of experiment: Alcian blue staining of ADSC pellets. The class given is cell-based. Here is the method:
(§1) To obtain a 3D pellet culture, 1×10^5 MSCs were centrifuged at 1200 rpm for 3 min in polypropylene tubes and cultured for 1 day. To induce chondrogenesis, the pelleted cells were cultured in DMEM-HG (Gibco, cat. no. 121000) containing 1% ITS-Premix (Corning, cat. no. 354352), 1% penicillin streptomycin (Gibco, cat. no. 15240), 1 mM sodium pyruvate (Gibco, cat. no. 11360070), 0.35 mM proline (Sigma-Aldrich, cat. no. P5607), 10 ng/mL TGF-β1 (SinoBio, cat. no. 10804-HNAC), 0.17 mM ascorbic acid 2-phosphate (Sigma-Aldrich, cat. no. A8960), and 100 nM dexamethasone (Sigma-Aldrich, cat. no. D4902). After induction, the chondrogenic differentiation results were evaluated on days 1, 7, 14, and 21.
(§2) To further verify the presence of chondrogenic proteins in response to CXCL14-P treatment, ADSCs were analyzed during chondrogenesis using biomarkers such as SOX9, Collagen type II, COMP, and CXCR4. On the third day of differentiation, flow cytometry was used to assess these specific chondrogenic markers. […] ADSCs were monitored until day 7, with cellular uptake of FAM-CXCL14-P observed using fluorescence microscopy, the results were shown in FIG. 7E.

In a further experiment the test system is 3D ADSC spheroids. The experiment can be described thus: Immunofluorescence staining of chondrogenic proteins in 3D ADSC spheroids. It is filed as cell-based. The following applies: 3D culture. Here is the method: MSC spheroids were fixed with 4% paraformaldehyde (PFA) (PH 7.2) in PBS for 30 minutes at room temperature. The samples were then washed with PBS to remove the PFA. Next, the spheroids were carefully transferred into ice-cold methanol and incubated at −40° C. for 25 minutes. Following fixation, the spheroids were treated with 1 mg/mL sodium borohydride to clean them, and then washed with PBS. After washing, the spheroids were incubated in a blocking solution containing 10% normal rabbit serum and 1x PBS with 0.1% sodium azide for 6 hours or overnight. The samples were then incubated with primary antibodies against Collagen type II (ab34712, Abcam), SOX9 (ab185966, Abcam), COMP (sc-374660, Santa Cruz), and Aggrecan (MA3-16888, Invitrogen) for 24 hours at 4° C. Subsequently, the samples were incubated with Alexa Fluor 488-, Alexa Fluor 555-, or Alexa Fluor 647-conjugated secondary antibodies for 1 hour at room temperature. Fluorescence images were acquired using a Leica SP8 STED confocal microscope.

In the next experiment the test system is human ADSCs. The experiment can be described thus: Flow cytometry of chondrogenic markers in ADSCs. It is filed as cell-based. The following applies: third day of differentiation. Here is the method:
as §2

The next experiment has as its system ADSC. The experiment can be described thus: Real-time PCR of chondrogenic genes in treated ADSCs. It is filed as cell-based, human. Here is the method: as §1
To identify functional peptide sequences within the CXCL14 protein that enhance chondrogenesis, an CXCL14 peptide (CXCL14-P), which has the amino acid sequence set forth in SEQ ID NO: 2, was used for interacting with CXCR4. […]
MSC-EVs have been reported to have potential for tissue repair; however, naive EVs lack the enhanced capacity to stimulate chondrogenesis and cartilage repair. […] On day 7, ADSCs treated with CXCL14-P-MSC-EVs were analyzed for the expression of SOX9, COL2A1, ACAN, COMP, SOSTDC1, and ITGB1 genes […] using real-time PCR.

Experiment [1] deals with IPFP-MSC from OA patients. As to the kind of experiment: Alcian blue staining of GAG during chondrogenesis of IPFP-MSC pellets. The class given is cell-based, human. To be noted: day 3. Here is the method: The IPFP tissue was washed repeatedly with Dulbecco's phosphate-buffered saline (Gibco, cat. no. 21600) containing 5% penicillin-streptomycin and amphotericin B solution (Gibco, cat. no. 15240). The tissue was minced and subjected to enzymatic digestion with 0.1% type I collagenase (Gibco, cat. no. 17100017) diluted in minimum essential medium α (α-MEM, Gibco, cat. no. 120000) and 1% bovine serum albumin (Sigma, cat. no. A7906) for 18 h at 37° C. After digestion, an equal amount of culture medium containing 10% fetal bovine serum was added to stop collagenase activity. The cell solution was sieved through a 100-μm mesh and centrifuged at 500 g for 5 min. The cell pellets were resuspended in culture medium (supplemented with 10% FBS, 1% penicillin-streptomycin, and amphotericin B) and seeded in a 10-cm culture dish. The medium was changed every 72 h until the cells reached 80%-90% confluence.
To obtain a 3D pellet culture, 1×10^5 MSCs were centrifuged at 1200 rpm for 3 min in polypropylene tubes and cultured for 1 day. […]
CXCL14 was analyzed to determine the stimulation of chondrogenesis and cartilage regeneration. CXCL14 was also analyzed to determine whether CXCL14 can induce chondrogenesis by using IPFP-MSC from OA patients treated with the recombinant protein CXCL14 and investigating the glycosaminoglycan (GAG) content by Alcian blue staining. […]

The test system of another experiment is ACLT-induced OA. As to the kind of experiment: ACLT-induced knee OA mouse model (Safranin O, collagen II IHC, OARSI score). To be noted: for OARSI score: ACLT mice, ACLT group 5.5, sham 0.17. The class given is in vivo, C57BL/6 mice. An excerpt:
Surgical ACLT is the most commonly used for generating an animal model of OA. In this study, 8-week-old specific-pathogen-free C57BL/6 mice were subjected to ACLT and medial collateral ligament (MCL) transection for establishing an OA mouse model (n=6). First, the knee joints of the hind limbs were incised along the medial edge of the patellar ligament. After the joint capsule was exposed, the ACL and MCL were transected. […] After deparaffinization, the sections were stained with hematoxylin for 3 min and differentiated in 1% acid alcohol for 15 s, followed by staining in 0.02% aqueous fast green for 3 min and counterstaining with 0.1% Safranin O for 3 min. Finally, the sections were dehydrated in serial dilutions of ethanol, cleared in xylene, mounted onto glass slides by using neutral gum. Each stained area was observed under a light microscope and photographed using a photomicroscope equipped with a CCD video camera.

For the next experiment, the system named is SOSTDC1. The experiment can be described thus: qPCR validation of SOSTDC1 after CXCL14 treatment during MSC chondrogenesis. The class given is cell-based, human.
The test system of experiment [2] is CXCL14, SOX9, COL2A1, and ACAN mRNA expressions. The experiment can be described thus: Real-time PCR of chondrogenic genes under TGF-b stimulation during chondrogenesis. It is filed as cell-based. To be noted: under a low dose of TGF-β stimulation. Here is the method: as §1
To better understand the molecular mechanism relating to the control of chondrogenesis modulated by CXCL14, the chondrogenic gene expressions were investigated during chondrogenesis.

Consider 2 molecules from patent US20250082727A1, “CXCL14-BASED COMPOSITIONS AND METHOD FOR ENHANCING CARTILAGE REGENERATION” (FAR EASTERN MEMORIAL HOSPITAL, priority 2023, published 2025).

Consider “CXCL14-P: CXCL14 peptide with the amino acid sequence SEQ ID NO: 2, produced through solid-phase peptide synthesis (ITTKSVSRYRGQEH; listed as Homo sapiens)”, for which the “GAG content (Alcian blue staining)” value with ADSC pellets (ADSC pellets during chondrogenesis) is reported as “higher GAG content”. In addition, the “GAG deposition (Alcian blue staining)” value in the experiment with ADSC pellets (ADSC pellets with varying ratios, day 7) is “increased GAG deposition”. Besides, in the experiment with 3D ADSC spheroids, the “expressions of SOX9, Collagen type II, and Aggrecan (immunofluorescence)” value is “consistent results”. Moreover, the “chondrogenic potential (SOX9, Collagen type II, COMP, CXCR4 markers)” value in the experiment with human ADSCs is on record as “enhances the chondrogenic potential”. In addition, the “CXCL14, SOX9, and COL2A1 gene expression” value in the experiment on ADSC (ADSC, real-time PCR on day 7, compared to CXCL14 protein) was “stronger chondrogenic gene expression compared to the protein”. In addition, the “SOX9, COL2A1, COMP, and ACAN gene expression” value in the experiment with ADSC (one-day treatment then fresh medium, real-time PCR on day 7) is reported as “significantly induced”.

B1: CXCL14: small cytokine of the CXC chemokine family, Homo sapiens CXCL14, amino acid sequence SEQ ID NO: 1 (protein, listed as Homo sapiens)
chain: MSLLPRRAPPVSMRLLAAALLLLLLALYTARVDGSKCKCSRKGPKIRYSDVKKLEMKPKYPHCEEKMVIITTKSVSRYRGQEHCLHPKLQSTKRFIKWYNAWNEKRRVYEE
Take B1: the “GAG deposition (Alcian blue staining)” value in experiment [1] was “increased”. Moreover, in the experiment with 3D ADSC spheroids, the “expressions of SOX9, Collagen type II, and Aggrecan (immunofluorescence)” value is “elevate”. For the same molecule, the results for the OARSI score in the experiment with ACLT-induced OA (CXCL14 10 ng) and in the experiment with ACLT-induced OA (CXCL14 20 ng) were 2.7 and 1, respectively. Also, the “cartilage repair, staining GAG content and type II collagen” value in the experiment with ACLT-induced OA (ACLT-induced OA model) is listed as “dose-dependent stimulated cartilage repair”. Moreover, the “SOSTDC1 expression (qPCR)” value in the experiment on SOSTDC1 (IPFP-MSCs from OA donors) and in the experiment on SOSTDC1 (human ADSCs from non-OA donors) was “upregulated expression” each time. In addition, in experiment [2], the “CXCL14, SOX9, COL2A1, and ACAN gene expression” value was “induce”.
